Experimental data: patent US20250075006A1 (SHANDONG SIMCERE BIOPHARMACEUTICAL, published 2025)
Like-named read-outs stand apart in the source and are kept apart here.

Tests used:
[1] = target: T1, Human GUCY2C ECD (his-tagged human GUCY2C protein extracellular domain fusion protein) (human, UniProt P25092 24-430); assay: ELISA, plate coated with human GUCY2C-his, OD450
T1 construct: also called human GUCY2C-his; human GUCY2C-His
Method: (§1) A human GUCY2C-his protein was diluted with PBS to a final concentration of 2 μg/mL and then added to a 96-well ELISA plate at 50 μL/well. The plate was sealed with a plastic film and incubated at 4° C. overnight. The next day, the plate was washed 2 times with PBST, and a blocking buffer [PBS+2% (w/w) BSA] was added for blocking at room temperature for 2 h. The blocking buffer was discarded, and the recombinant antibody and positive and negative control antibody with a starting concentration of 100 nM serially diluted by 3 folds were added at 50 μL/well. After incubation at 37° C. for 1 h, the plate was washed 3 times with PBST. A horseradish peroxidase (HRP)—labeled secondary antibody (purchased from Merck, Cat. No. AP113P) was added for incubation at 37° C. for 1 h, and the plate was washed 5 times with PBST. A TMB substrate was added at 50 μL/well for incubation at room temperature for 10 min, and then a stop solution (1.0 M HCl) was added at 50 μL/well. The OD450 nm values were read by an ELISA plate reader (Multimode Plate Reader, EnSight, purchased from Perkin Elmer).

[2] = target: T2, Cyno GUCY2C ECD (his-tagged cynomolgus monkey GUCY2C protein extracellular domain fusion protein) (cynomolgus monkey, UniProt P25092 24-430 (human entry)); assay: ELISA, plate coated with monkey GUCY2C-his, OD450
T2 construct: also called monkey GUCY2C-his; monkey GUCY2C-His
T2 chain: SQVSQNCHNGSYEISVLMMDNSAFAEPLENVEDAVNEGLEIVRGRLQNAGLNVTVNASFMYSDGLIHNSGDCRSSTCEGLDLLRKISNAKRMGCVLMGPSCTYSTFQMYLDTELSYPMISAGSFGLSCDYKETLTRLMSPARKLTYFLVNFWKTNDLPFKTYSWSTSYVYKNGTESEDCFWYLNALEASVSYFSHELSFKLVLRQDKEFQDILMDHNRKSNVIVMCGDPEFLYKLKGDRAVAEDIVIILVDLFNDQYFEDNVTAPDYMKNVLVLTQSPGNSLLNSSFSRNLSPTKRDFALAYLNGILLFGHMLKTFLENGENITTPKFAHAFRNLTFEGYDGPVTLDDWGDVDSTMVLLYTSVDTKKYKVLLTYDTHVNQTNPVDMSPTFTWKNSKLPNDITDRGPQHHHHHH
Method: as §1
(§2) The monkey GUCY2C-his and murine GUCY2C-his proteins were subjected to ELISA and data analysis according to the method described in Example 4.2. The recombinant antibodies Lab306-huFc, Lab322-huFc, and Lab323-huFc have a relatively good binding activity with the monkey GUCY2C-his protein. […]

[3] = target: T1, Human GUCY2C ECD (his-tagged human …); assay: SPR Biacore, antibody on Protein A, antigen injected
Method: The strength of antibody-antigen binding was assayed with a BIAcore 8K instrument using a Protein A capture method. First, Protein A was immobilized onto a CM4 chip (purchased from GE, BR-1005-34) using an amino coupling method. According to the instruction of the Amine Coupling Kit (purchased from GE, BR100633), NHS and EDC were mixed with HBS-EP+pH 7.4 as a mobile phase to activate the chip for about 600 s; the Protein A was diluted to 50 μg/mL with 10 mM sodium acetate (pH 4.5) and injected for 600 s, and finally, the remaining activated sites were blocked with ethanolamine. Then, the affinity of the antibody for the antigen was assayed using a multi-cycle kinetic method; in each cycle, first, the antibody to be tested was captured using the Protein A chip, and then a single concentration of antigen protein was injected. The association and dissociation processes of the antibody with the antigen protein were recorded, and finally, the chip was regenerated using Glycine pH 1.5, wherein the mobile phase was HBS-EP+(10 mM HEPES, 150 mM NaCl, 3 mM EDTA, 0.05% surfactant P20), the flow rate was 30 μL/min, the regeneration time was 30 s, and the assay temperature was 25° C. Finally, according to a 1:1 binding model, the data were analyzed, and the antibody-antigen binding kinetics parameters, including the association rate constant Ka, the dissociation rate constant Kd, the equilibrium dissociation constant KD, and the maximum binding signal Rmax, were fitted.
The association rate (Ka), dissociation rate (Kd), and binding affinity (KD) of the recombinant antibodies Lab306-huFc, Lab322-huFc, and Lab323-huFc with the human GUCY2C protein are shown in Table 5. The positive control antibody has good binding activity at the protein level, but has very weak binding at the cellular level. Lab322-huFc and Lab323-huFc, although weak in affinity, bind well to the cellular level, presumably due to differences in the conformation of the proteins and proteins at the viable cellular level.

[4] = target: T3, Mouse GUCY2C ECD (his-tagged mouse GUCY2C protein extracellular domain fusion protein) (mouse, UniProt Q3UWA6 20-433); assay: ELISA, plate coated with mouse GUCY2C-his, OD450
T3 construct: also called murine GUCY2C-his; murine GUCY2C-His
T3 sequence: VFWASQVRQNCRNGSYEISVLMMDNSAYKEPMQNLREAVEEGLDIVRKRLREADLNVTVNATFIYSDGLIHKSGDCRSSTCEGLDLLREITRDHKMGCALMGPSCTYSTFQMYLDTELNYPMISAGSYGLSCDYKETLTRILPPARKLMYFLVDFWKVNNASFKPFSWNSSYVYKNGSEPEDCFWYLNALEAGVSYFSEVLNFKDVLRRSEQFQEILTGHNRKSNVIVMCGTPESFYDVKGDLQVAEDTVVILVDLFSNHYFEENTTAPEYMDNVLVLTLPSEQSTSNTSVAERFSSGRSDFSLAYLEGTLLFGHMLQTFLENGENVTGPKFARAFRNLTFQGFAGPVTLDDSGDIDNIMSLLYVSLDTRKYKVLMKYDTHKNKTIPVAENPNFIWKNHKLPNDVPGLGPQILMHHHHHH
Method: as §1, §2

[5] = target: T2, Cyno GUCY2C ECD (his-tagged cynomolgus …); assay: ELISA, plate coated with monkey GUCY2C-his, OD450

T1 sequence (P25092 other isoform, or with tags, fused parts or gaps): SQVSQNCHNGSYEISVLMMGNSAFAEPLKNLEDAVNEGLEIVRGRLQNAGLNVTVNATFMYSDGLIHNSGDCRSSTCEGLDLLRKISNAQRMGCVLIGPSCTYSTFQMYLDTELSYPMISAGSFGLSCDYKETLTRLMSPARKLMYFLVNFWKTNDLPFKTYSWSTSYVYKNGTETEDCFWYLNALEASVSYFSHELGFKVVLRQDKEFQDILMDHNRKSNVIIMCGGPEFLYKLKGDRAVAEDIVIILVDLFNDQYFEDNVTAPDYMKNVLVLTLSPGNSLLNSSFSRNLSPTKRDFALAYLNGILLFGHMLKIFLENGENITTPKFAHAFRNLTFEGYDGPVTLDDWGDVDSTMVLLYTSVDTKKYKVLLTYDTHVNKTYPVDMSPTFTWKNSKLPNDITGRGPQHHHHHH

| Binder | EC50 (read off the curve) [1] [nM] | EC50 (read off the curve) [2] [nM] | Kd [3] [nM] | koff [3] [s⁻¹] | kon [3] [M⁻¹ s⁻¹] | binding result [4] | EC50 (read off the curve) [5] [nM] | EC50 (read off the curve) [4] [nM] |
| --- | --- | --- | --- | --- | --- | --- | --- | --- |
| 5F9-hIgG1 (antibody, V domains shown, also called positive control antibody) VH: QVQLQQWGAGLLKPSETLSLTCAVFGGSFSGYYWSWIRQPPGKGLEWIGEINHRGNTNDNPSLKSRVTISVDTSKNQFALKLSSVTAADTAVYYCARERGYTYGNFDHWGQGTLVTVSS VL: EIVMTQSPATLSVSPGERATLSCRASQSVSRNLAWYQQKPGQAPRLLIYGASTRATGIPARFSGSGSGTEFTLTIGSLQSEDFAVYYCQQYKTWPRTFGQGTNVEIKR | ~0.05 | ~0.08 | 2.19 | 0.00028 | 128000 | no binding (tested: 100 nM) | ~0.03 |  |
| PF1608-hIgG1 (antibody, V domains shown, also called PF1608-hlgG1; positive control antibody) VH: EVQLVESGGGLVQPGGSLRLSCAASGFTFSSYWMHWVRQAPGKGLEWIGEIKPSNELTNVHEKFKDRFTISVDKAKNSAYLQMNSLRAEDTAVYYCTRTITTTEGYWFFDVWGQGTLVTVSS VL: DIQLTQSPSSLSASVGDRVTITCRASESVDYYGSSLLQWYQQKPGKAPKLLIYAASKLASGVPSRFSGSGSGTDFTLTISSLQPEDFATYYCQQTRKAYTFGQGTKLEIKR | ~0.09 | ~0.08 | 1.61 | 0.000235 | 146000 |  | ~0.05 | ~0.05 |
